Measurements taken from patent US20230002486A1 (SPARX THERAPEUTICS, published 2023).
Read-outs that look alike come from different tables or passages of the source.

Tests used:
[1] = target: claudin 18.2 (CLDN 18.2), recombinant protein (human); assay: competitive phage ELISA, phage-displayed Fab, coated and soluble CLDN 18.2; parameters: unit not given here
Description: (§1) After 15 min incubation and washing, anti-M13 antibody/HRP conjugate was added and incubated for 30 min, then developed with TMB for 5-10 min and quenched with 1 M phosphoric acid. Binding signal was analyzed by the plate reader.
(§2) To identify clones with improved solubility, CDR light chain residue 55 (LC55E or L2) was mutated back to Glu on clones 9O47, 5C9oap-oae, 9O24-oae, 9O36-oae, 9O45-oae, and 9O47-oae.

[2] = target: claudin 18.2 (CLDN 18.2), recombinant protein (human); assay: competitive phage ELISA: phage-displayed Fab pre-incubated with a dilution series of soluble CLDN 18.2 (axis: GFP-CLDN 18.2, nM), then added to plate-coated CLDN 18.2
Description: as §1

[3] = target: claudin 18.2 (CLDN 18.2), recombinant protein (human); assay: as above; remark: listed apart in the source
Description: as §1, §2

[4] = target: T1, PD-L1 (programmed death-ligand 1), recombinant protein (human, UniProt Q9NZQ7 19-238, limits assumed); assay: direct ELISA, coated PD-L1 (FIG. 28B)
T1 construct: the other ELISAs print only 'PD-L1'; also called human PDL1; CD274
T1 sequence (Q9NZQ7 19-238 limits assumed): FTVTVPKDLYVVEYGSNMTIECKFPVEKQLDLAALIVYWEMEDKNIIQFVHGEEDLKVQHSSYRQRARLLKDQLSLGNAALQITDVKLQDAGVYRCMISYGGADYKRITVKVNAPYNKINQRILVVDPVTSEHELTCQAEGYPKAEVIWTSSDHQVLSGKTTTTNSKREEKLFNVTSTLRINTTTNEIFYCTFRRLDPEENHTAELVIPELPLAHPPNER

[5] = target: claudin 18.2 (CLDN 18.2), recombinant protein (human); assay: direct ELISA, coated CLDN 18.2 (FIG. 28A)
[6] = target: claudin 18.2 (CLDN 18.2), recombinant protein (human); assay: ELISA, coated CLDN18.2 (FIG. 30A)
[7] = target: T1, PD-L1 (programmed death-ligand 1), …; assay: ELISA, coated human PDL1 (FIG. 30B)
[8] = target: mouse PDL1 (mouse, UniProt Q9EP73 19-238, limits assumed); assay: ELISA, coated mouse PDL1 (FIG. 30B)
Chain of mouse PDL1 (Q9EP73 19-238 limits assumed): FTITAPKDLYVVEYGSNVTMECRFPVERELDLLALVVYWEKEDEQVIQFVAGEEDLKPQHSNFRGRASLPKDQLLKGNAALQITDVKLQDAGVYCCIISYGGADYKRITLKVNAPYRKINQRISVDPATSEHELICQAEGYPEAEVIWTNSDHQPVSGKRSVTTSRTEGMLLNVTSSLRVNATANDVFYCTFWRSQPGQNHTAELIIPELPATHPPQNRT

[9] = target: claudin 18.2 (CLDN 18.2), recombinant protein (human); assay: direct ELISA on coated CLDN 18.2
[10] = target: T1, PD-L1 (programmed death-ligand 1), …; assay: direct ELISA on coated human PD-L1

Chain of claudin 18.2 (CLDN 18.2), recombinant protein (human) (chain, as listed by the source limits assumed): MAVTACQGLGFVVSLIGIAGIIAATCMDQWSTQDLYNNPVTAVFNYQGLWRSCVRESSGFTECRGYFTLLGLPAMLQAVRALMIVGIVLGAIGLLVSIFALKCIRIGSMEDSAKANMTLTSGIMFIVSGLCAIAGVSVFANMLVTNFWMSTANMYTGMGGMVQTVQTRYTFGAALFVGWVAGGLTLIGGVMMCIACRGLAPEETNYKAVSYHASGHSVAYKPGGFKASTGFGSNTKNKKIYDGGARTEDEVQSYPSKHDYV

B1: 9O36-oae with LC55E, phage-displayed Fab (Fab, V domains shown)
VH: EVQLVESGGGLVQPGGSLRLSCAVSGYTFSMNWVRQAPGKGLEWVAWINMYTGEPTYADDFKGRFTISRDDSKNTLYLQMNSLRAEDTAVYYCARLYRGNSLDYWGQGTLVTVSS
VL: DIQMTQSPSSLSASVGDRVTITCKSSQSLLNWGNQKSYLTWYQQKPGKAPKLLIYWASTLESGVPSRFSGSGSGTDYTLTISSLQPEDFATYYCQNAYFFPFTFGQGTKVEIK
notes: built from 9O36-oae with light chain residue 55 (Kabat; the sixth residue of VL CDR2 WASTLMS) mutated back to Glu; also called 9O36 oaeL2
With B1 the binding affinity [1] was 0.059.

B2: 9O24, phage-displayed Fab (Fab, V domains shown)
VH: EVQLVESGGGLVQPGGSLRLSCAVSGYTFSMNWVRQAPGKGLEWVAWINMYTGEKTYADDFKGRFTISRDDSKNTLYLQMNSLRAEDTAVYYCARLYNGNSLDYWGQGTLVTVSS
VL: DIQMTQSPSSLSASVGDRVTITCKSSQSLLNSGNWKSYLTWYQQKPGKAPKLLIYWASTLVSGVPSRFSGSGSGTDYTLTISSLQPEDFATYYCQNAYSFPFTFGQGTKVEIK
With B2 the binding affinity [1] was 0.144 and the “IC50 (read off the curve)” value [2] was roughly 0.2 nM.

B3: 9O24-oae with LC55E, phage-displayed Fab (Fab, V domains shown)
VH: EVQLVESGGGLVQPGGSLRLSCAVSGYTFSMNWVRQAPGKGLEWVAWINMYTGEKTYADDFKGRFTISRDDSKNTLYLQMNSLRAEDTAVYYCARLYRGNSLDYWGQGTLVTVSS
VL: DIQMTQSPSSLSASVGDRVTITCKSSQSLLNSGNWKSYLTWYQQKPGKAPKLLIYWASTLESGVPSRFSGSGSGTDYTLTISSLQPEDFATYYCQNAYFFPFTFGQGTKVEIK
notes: built from 9O24-oae with light chain residue 55 (Kabat; the sixth residue of VL CDR2 WASTLVS) mutated back to Glu; also called 9O24 oaeL2
B3 showed a binding affinity [1] of 0.0604.

B4: 5C9ob, phage-displayed Fab (Fab, V domains shown)
VH: EVQLVESGGGLVQPGGSLRLSCAVSGYTFSMNWVRQAPGKGLEWVAWINMYTGEPTYADDFKGRFTISRDDSKNTLYLQMNSLRAEDTAVYYCARLYNGNSLDYWGQGTLVTVSS
VL: DIQMTQSPSSLSASVGDRVTITCKSSQSLLNSGNQKSYLTWYQQKPGKAPKLLIYWASTLESGVPSRFSGSGSGTDYTLTISSLQPEDFATYYCQNAYFFPFTFGQGTKVEIK
notes: also called 5C9o with 5C9ob mutations
Work on B4 yielded a binding affinity [1] of 0.221.

B5: 9O47E (9O47 with LC55E), phage-displayed Fab (Fab, V domains shown)
VH: EVQLVESGGGLVQPGGSLRLSCAVSGYTFSMNWVRQAPGKGLEWVAWINMYTGEPIYADDFKGRFTISRDDSKNTLYLQMNSLRAEDTAVYYCARLYNGNSLDYWGQGTLVTVSS
VL: DIQMTQSPSSLSASVGDRVTITCKSSQSLLNWGNQKSYLTWYQQKPGKAPKLLIYWASTLESGVPSRFSGSGSGTDYTLTISSLQPEDFATYYCQNAYSFPFTFGQGTKVEIK
notes: also called 9O47 LC55E (L2)
With B5 the binding affinity [1] was 0.141.

B6: 9O41, phage-displayed Fab (Fab, V domains shown)
VH: EVQLVESGGGLVQPGGSLRLSCAVSGYTFSMNWVRQAPGKGLEWVAWINMYTGERTYADDFKGRFTISRDDSKNTLYLQMNSLRAEDTAVYYCARLYNGNSLDYWGQGTLVTVSS
VL: DIQMTQSPSSLSASVGDRVTITCKSSQSLLNSGNIKSYLTWYQQKPGKAPKLLIYWASTLRSGVPSRFSGSGSGTDYTLTISSLQPEDFATYYCQNAYSFPFTFGQGTKVEIK
In the case of B6, the binding affinity [1] is reported as 0.167.

B7: 9O47, phage-displayed Fab (Fab, V domains shown)
VH: EVQLVESGGGLVQPGGSLRLSCAVSGYTFSMNWVRQAPGKGLEWVAWINMYTGEPIYADDFKGRFTISRDDSKNTLYLQMNSLRAEDTAVYYCARLYNGNSLDYWGQGTLVTVSS
VL: DIQMTQSPSSLSASVGDRVTITCKSSQSLLNWGNQKSYLTWYQQKPGKAPKLLIYWASTLFSGVPSRFSGSGSGTDYTLTISSLQPEDFATYYCQNAYSFPFTFGQGTKVEIK
With B7 the binding affinity [1] was 0.095, the “IC50 (read off the curve)” value [2] was roughly 0.1 nM and the Kd [2] was 0.095 nM.

B8: 9O47-oaeE (9O47-oae with LC55E), phage-displayed Fab (Fab, V domains shown)
VH: EVQLVESGGGLVQPGGSLRLSCAVSGYTFSMNWVRQAPGKGLEWVAWINMYTGEPIYADDFKGRFTISRDDSKNTLYLQMNSLRAEDTAVYYCARLYRGNSLDYWGQGTLVTVSS
VL: DIQMTQSPSSLSASVGDRVTITCKSSQSLLNWGNQKSYLTWYQQKPGKAPKLLIYWASTLESGVPSRFSGSGSGTDYTLTISSLQPEDFATYYCQNAYFFPFTFGQGTKVEIK
notes: also called 9O47 oaeL2; 9O47 with 5C9oae and L2 mutations
For B8, the binding affinity [1] was 0.0533 and the “IC50 (read off the curve)” value [3] was roughly 0.06 nM.

B9: 9O45-oae with LC55E, phage-displayed Fab (Fab, V domains shown)
VH: EVQLVESGGGLVQPGGSLRLSCAVSGYTFSMNWVRQAPGKGLEWVAWINMYTGETTYADDFKGRFTISRDDSKNTLYLQMNSLRAEDTAVYYCARLYRGNSLDYWGQGTLVTVSS
VL: DIQMTQSPSSLSASVGDRVTITCKSSQSLLNWGNQKSYLTWYQQKPGKAPKLLIYWASTLESGVPSRFSGSGSGTDYTLTISSLQPEDFATYYCQNAYFFPFTFGQGTKVEIK
notes: built from 9O45-oae with light chain residue 55 (Kabat; the sixth residue of VL CDR2 WASTLYS) mutated back to Glu; also called 9O45 oaeL2
For B9, the binding affinity [1] was 0.0562.

B10: 9O45, phage-displayed Fab (Fab, V domains shown)
VH: EVQLVESGGGLVQPGGSLRLSCAVSGYTFSMNWVRQAPGKGLEWVAWINMYTGETTYADDFKGRFTISRDDSKNTLYLQMNSLRAEDTAVYYCARLYNGNSLDYWGQGTLVTVSS
VL: DIQMTQSPSSLSASVGDRVTITCKSSQSLLNWGNQKSYLTWYQQKPGKAPKLLIYWASTLYSGVPSRFSGSGSGTDYTLTISSLQPEDFATYYCQNAYSFPFTFGQGTKVEIK
With B10 the binding affinity [1] was 0.104 and the “IC50 (read off the curve)” value [2] was roughly 0.1 nM.

B11: 5C9oap-oaeE (5C9oap-oae with LC55E), phage-displayed Fab (Fab, V domains shown)
VH: EVQLVESGGGLVQPGGSLRLSCAVSGYTFSMNWVRQAPGKGLEWVAWINMYTGERTYADDFKGRFTISRDDSKNTLYLQMNSLRAEDTAVYYCARLYRGNSLDYWGQGTLVTVSS
VL: DIQMTQSPSSLSASVGDRVTITCKSSQSLLNWGNQKSYLTWYQQKPGKAPKLLIYWASTLESGVPSRFSGSGSGTDYTLTISSLQPEDFATYYCQNAYFFPFTFGQGTKVEIK
notes: also called 5C9oap oaeL2; 5C9oap with 5C9oae and L2 mutations
B11 was tested, and the binding affinity [1] was 0.0593 and the “IC50 (read off the curve)” value [3] was roughly 0.06 nM.

B12: 9O36, phage-displayed Fab (Fab, V domains shown)
VH: EVQLVESGGGLVQPGGSLRLSCAVSGYTFSMNWVRQAPGKGLEWVAWINMYTGEPTYADDFKGRFTISRDDSKNTLYLQMNSLRAEDTAVYYCARLYNGNSLDYWGQGTLVTVSS
VL: DIQMTQSPSSLSASVGDRVTITCKSSQSLLNWGNQKSYLTWYQQKPGKAPKLLIYWASTLMSGVPSRFSGSGSGTDYTLTISSLQPEDFATYYCQNAYSFPFTFGQGTKVEIK
B12 was tested, and the binding affinity [1] was 0.108.

B13: Db11-21, heterodimeric (knob/hole) anti-CLDN 18.2/anti-PD-L1 bispecific antibody (bispecific antibody)
chain 1: not shown
chain 2: EIVLTQSPGTLSLSPGERATLSCRASQRVSSSYLAWYQQKPGQAPRLLIYDASSRATGIPDRFSGSGSGTDFTLTISRLEPEDFAVYYCQQYGSLPWTFGQGTKVEIKRSGGGGEVQLVESGGGLVQPGGSLRLSCAVSGYTFSMNWVRQAPGKGLEWVAWINMYTGEPTYADDFKGRFTISRDDSKNTLYLQMNSLRAEDTAVYYCARLYNGNSLDYWGQGTLVTVSSGGGGSEPKSSDKTHTCPPCPAPELLGGPSVFLFPPKPKDTLMISRTPEVTCVVVDVSHEDPEVKFNWYVDGVEVHNAKTKPREEQYNSTYRVVSVLTVLHQDWLNGKEYKCKVSNKALPAPIEKTISKAKGQPREPQVCTLPPSREEMTKNQVSLSCAVKGFYPSDIAVEWESNGQPENNYKTTPPVLDSDGSFFLVSKLTVDKSRWQQGNVFSCSVMHEALHNRFTQKSLSLSPGK
notes: Db11: 5C9ob VL-L1-durvalumab VH-L2-knob Fc; Db21: durvalumab VL-L3-5C9ob VH-L4-hole Fc; also called Db11/Db21
B13 was tested, and the Kd [4] was 0.378 nM and the Kd [5] was 0.104 nM.

B14: OB12A4, two-chain anti-CLDN 18.2/anti-PD-L1 (12A4) bispecific antibody (bispecific antibody)
chain 1: not shown
chain 2: EIVLTQSPATLSLSPGERATLSCRASQSVSSYLAWYQQKPGQAPRLLIYDASNRATGIPARFSGSGSGTDFTLTISSLEPEDFAVYYCQQRSNWPTFGQGTKVEIKSGGGGEVQLVESGGGLVQPGGSLRLSCAVSGYTFSMNWVRQAPGKGLEWVAWINMYTGEPTYADDFKGRFTISRDDSKNTLYLQMNSLRAEDTAVYYCARLYNGNSLDYWGQGTLVTVSSGGGGSEPKSSDKTHTCPPCPAPELLGGPSVFLFPPKPKDTLMISRTPEVTCVVVDVSHEDPEVKFNWYVDGVEVHNAKTKPREEQYNSTYRVVSVLTVLHQDWLNGKEYKCKVSNKALPAPIEKTISKAKGQPREPQVCTLPPSREEMTKNQVSLSCAVKGFYPSDIAVEWESNGQPENNYKTTPPVLDSDGSFFLVSKLTVDKSRWQQGNVFSCSVMHEALHNRFTQKSLSLSPGK
B14 was tested, and the Kd [6] was 0.212 nM, the Kd [7] was 0.412 nM and the Kd [8] was roughly 11100 nM. For the same binder, the “EC50 (read off the curve)” value [9] was roughly 0.2 nM and the “EC50 (read off the curve)” value [10] was roughly 0.4 nM.
